Data from publication PMC6555819, “Comprehensive study of nuclear receptor DNA binding provides a revised framework for understanding receptor specificity”.

B1: NRC3_wobSeed42_DR1_G22A_o1 (dsDNA)
DNA 1: GCTATACAGGGTCAAAGGCCAAAGTACGAATGTCGAGCGATTGACAGCGTAGAATGAAGG
DNA 2: CCTTCATTCTACGCTGTCAATCGCTCGACATTCGTACTTTGGCCTTTGACCCTGTATAGC
B2: NRC3_wobSeed61_DR2_C7A_o1 (dsDNA)
DNA 1: GCCGTCAAAGGTCAGCAGGTCAGTGAAAGCGACGTGGCGATTGACAGCGTAGAATGAAGG
DNA 2: CCTTCATTCTACGCTGTCAATCGCCACGTCGCTTTCACTGACCTGCTGACCTTTGACGGC
B3: NRC3_random_hg19_476_o1 (dsDNA)
DNA 1: GCACAGCAAAGAGGCCAGCATGGCTAGAGCAGATCAGCGATTGACAGCGTAGAATGAAGG
DNA 2: CCTTCATTCTACGCTGTCAATCGCTGATCTGCTCTAGCCATGCTGGCCTCTTTGCTGTGC
B4: NRC3_wobSeed2_DR0_G17C_o1 (dsDNA)
DNA 1: GCCCTAGTTGGTCAAGCTCACACACGCTATAGGTACGCGATTGACAGCGTAGAATGAAGG
DNA 2: CCTTCATTCTACGCTGTCAATCGCGTACCTATAGCGTGTGTGAGCTTGACCAACTAGGGC
B5: NRC3_wobSeed10_DR0_G6A_o1 (dsDNA)
DNA 1: GCATCAAAAGGTCGAGGTGAGTATAGAGAAAGGGAAGCGATTGACAGCGTAGAATGAAGG
DNA 2: CCTTCATTCTACGCTGTCAATCGCTTCCCTTTCTCTATACTCACCTCGACCTTTTGATGC
B6: NRC3_wobSeed77_DR3_G19C_o1 (dsDNA)
DNA 1: GCACTTACGGGTCAACGACGTTATAGCACGCGTATAGCGATTGACAGCGTAGAATGAAGG
DNA 2: CCTTCATTCTACGCTGTCAATCGCTATACGCGTGCTATAACGTCGTTGACCCGTAAGTGC
B7: NRC3_random_hg19_457_o1 (dsDNA)
DNA 1: GCAGCTGCATCCATGTTGCTGCAAAGGACATGACTTGCGATTGACAGCGTAGAATGAAGG
DNA 2: CCTTCATTCTACGCTGTCAATCGCAAGTCATGTCCTTTGCAGCAACATGGATGCAGCTGC
B8: NRC3_wobSeed130_DR5_C13G_o1 (dsDNA)
DNA 1: GCCTCGAAAGGTGGTGCTCAGGTGAGTATACCAAACGCGATTGACAGCGTAGAATGAAGG
DNA 2: CCTTCATTCTACGCTGTCAATCGCGTTTGGTATACTCACCTGAGCACCACCTTTCGAGGC
B9: NRC3_random_hg19_429_o1 (dsDNA)
DNA 1: GCTTAGTGAAGTGAAGGTTGCTTTCTACTCATTTGAGCGATTGACAGCGTAGAATGAAGG
DNA 2: CCTTCATTCTACGCTGTCAATCGCTCAAATGAGTAGAAAGCAACCTTCACTTCACTAAGC
B10: NRC3_wobSeed34_DR1_G20C_o1 (dsDNA)
DNA 1: GCATCGAAAGGTCGAAGGTCAGTATACCCACCCGAAGCGATTGACAGCGTAGAATGAAGG
DNA 2: CCTTCATTCTACGCTGTCAATCGCTTCGGGTGGGTATACTGACCTTCGACCTTTCGATGC
B11: NRC3_wobSeed28_DR1_T8G_o1 (dsDNA)
DNA 1: GCCCTACGGGGCCAAAGGTCATTGATTCCAATGCTCGCGATTGACAGCGTAGAATGAAGG
DNA 2: CCTTCATTCTACGCTGTCAATCGCGAGCATTGGAATCAATGACCTTTGGCCCCGTAGGGC
B12: NRC3_random_hg19_205_o1 (dsDNA)
DNA 1: GCGAATCATCATGAGCTCAGAATGATCCTAGGCAGAGCGATTGACAGCGTAGAATGAAGG
DNA 2: CCTTCATTCTACGCTGTCAATCGCTCTGCCTAGGATCATTCTGAGCTCATGATGATTCGC
B13: NRC3_random_hg19_281_o1 (dsDNA)
DNA 1: GCTTGTTGCTTCTGTTCTACGCCAGTGACTTGGAAAGCGATTGACAGCGTAGAATGAAGG
DNA 2: CCTTCATTCTACGCTGTCAATCGCTTTCCAAGTCACTGGCGTAGAACAGAAGCAACAAGC
B14: NRC3_wobSeed45_DR1_A20G_o1 (dsDNA)
DNA 1: GCTGTCAAAGTTCAAAGGTGACGTAAGTATCCACACGCGATTGACAGCGTAGAATGAAGG
DNA 2: CCTTCATTCTACGCTGTCAATCGCGTGTGGATACTTACGTCACCTTTGAACTTTGACAGC
B15: NRC3_wobSeed37_DR1_G4A_o1 (dsDNA)
DNA 1: GCCATCCAAGGTCAAAGGTCAGTGAAGAGATGACGGGCGATTGACAGCGTAGAATGAAGG
DNA 2: CCTTCATTCTACGCTGTCAATCGCCCGTCATCTCTTCACTGACCTTTGACCTTGGATGGC
B16: NRC3_wobSeed37_DR1_T5G_o1 (dsDNA)
DNA 1: GCCGGCCAAGGTCAAAGGTCAGTGAAGAGATGACGGGCGATTGACAGCGTAGAATGAAGG
DNA 2: CCTTCATTCTACGCTGTCAATCGCCCGTCATCTCTTCACTGACCTTTGACCTTGGCCGGC
B17: NRC3_wobSeed36_DR1_G12T_o1 (dsDNA)
DNA 1: GCCCGACTGGGTCAAAGGTTACCATACTCAGTACGAGCGATTGACAGCGTAGAATGAAGG
DNA 2: CCTTCATTCTACGCTGTCAATCGCTCGTACTGAGTATGGTAACCTTTGACCCAGTCGGGC
B18: NRC3_random_hg19_386_o1 (dsDNA)
DNA 1: GCTCCCTTCCCTTCCCTTCCCTTCCCACAACCACTGGCGATTGACAGCGTAGAATGAAGG
DNA 2: CCTTCATTCTACGCTGTCAATCGCCAGTGGTTGTGGGAAGGGAAGGGAAGGGAAGGGAGC
B19: NRC3_random_hg19_84_o1 (dsDNA)
DNA 1: GCGTAAGACACCTTCCTAGGAAGAGAACAGCAGAATGCGATTGACAGCGTAGAATGAAGG
DNA 2: CCTTCATTCTACGCTGTCAATCGCATTCTGCTGTTCTCTTCCTAGGAAGGTGTCTTACGC
B20: NRC3_random_hg19_127_o1 (dsDNA)
DNA 1: GCATGAGGTACTGATACATGCTACAATGTGTATGTAGCGATTGACAGCGTAGAATGAAGG
DNA 2: CCTTCATTCTACGCTGTCAATCGCTACATACACATTGTAGCATGTATCAGTACCTCATGC
B21: NRC3_wobSeed53_DR2_A17G_o1 (dsDNA)
DNA 1: GCCCTTACGGGTCACGGGGTTATAGCACGACGAGCGGCGATTGACAGCGTAGAATGAAGG
DNA 2: CCTTCATTCTACGCTGTCAATCGCCGCTCGTCGTGCTATAACCCCGTGACCCGTAAGGGC

Experiments:
RXRa = RXRa (Homo sapiens, UniProt P19793); assay: no ligand; PBM; 180 nM; PBS pH 7.4, 2% milk, 0.02% Triton X-100, 1 mM DTT, BSA, 0.4 mg/ml salmon testes DNA; conditions: tags: His cleaved; chain copies: 2; label: surface-attached array probe
PPARa:RXRa = PPARa:RXRa (Homo sapiens, UniProt Q07869;P19793 full;full); assay: no ligand; PBM; 270 nM : 90 nM RXRa; PBS pH 7.4, 2% milk, 0.02% Triton X-100, 1 mM DTT, BSA, 0.4 mg/ml salmon testes DNA; conditions: tags: GST kept;His cleaved; copies: 1;1; label: surface-attached array probe
How it was run: (§1)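 Ligand-free nuclear receptor dimers were bound for 1 h to custom Agilent 4×180K protein-binding microarrays. Detection used antibodies against each partner (one per run). Binding z-scores rest on regression-normalized fluorescence, with random background probes as the reference.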

RARa:RXRa = RARa:RXRa (Homo sapiens, UniProt P10276;P19793 full;full); assay: as above; conditions: tags: His kept;His cleaved; copies: 1;1; label: surface-attached array probe
How it was run: as §1

FXR:RXRa = FXR:RXRa (Homo sapiens, UniProt Q96RI1;P19793 full;full); assay: as above; conditions: tags: His kept;His cleaved; copies: 1;1; label: surface-attached array probe
How it was run: as §1

RARb:RXRa = RARb:RXRa (Homo sapiens, UniProt P10826;P19793 full;full); assay: as above; conditions: tags: His kept;His cleaved; copies: 1;1; label: surface-attached array probe
How it was run: as §1

RARg:RXRa = RARg:RXRa (Homo sapiens, UniProt P13631;P19793 full;full); assay: as above; conditions: tags: His kept;His cleaved; copies: 1;1; label: surface-attached array probe
How it was run: as §1

LXRb:RXRa = LXRb:RXRa (Homo sapiens, UniProt P55055;P19793 full;full); assay: as above; conditions: tags: His kept;His cleaved; copies: 1;1; label: surface-attached array probe
How it was run: as §1

VDR:RXRa = VDR:RXRa (Homo sapiens, UniProt P11473;P19793 full;full); assay: as above; conditions: tags: His kept;His cleaved; copies: 1;1; label: surface-attached array probe
How it was run: as §1

Chain of VDR:RXRa (P11473 whole entry, chain 1 of 2): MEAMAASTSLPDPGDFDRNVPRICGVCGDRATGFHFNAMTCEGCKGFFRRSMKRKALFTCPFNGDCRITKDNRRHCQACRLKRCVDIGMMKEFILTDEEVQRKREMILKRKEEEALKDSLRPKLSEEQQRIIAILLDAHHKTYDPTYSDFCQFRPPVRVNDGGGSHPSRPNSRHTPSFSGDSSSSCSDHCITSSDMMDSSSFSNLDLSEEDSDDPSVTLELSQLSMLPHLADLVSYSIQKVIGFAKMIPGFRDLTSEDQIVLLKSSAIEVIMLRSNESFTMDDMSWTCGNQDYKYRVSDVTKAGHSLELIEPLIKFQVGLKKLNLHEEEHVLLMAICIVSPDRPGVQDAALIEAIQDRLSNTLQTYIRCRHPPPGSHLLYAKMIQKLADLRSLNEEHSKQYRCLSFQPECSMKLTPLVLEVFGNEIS
Chain of VDR:RXRa (P19793 whole entry, chain 2 of 2): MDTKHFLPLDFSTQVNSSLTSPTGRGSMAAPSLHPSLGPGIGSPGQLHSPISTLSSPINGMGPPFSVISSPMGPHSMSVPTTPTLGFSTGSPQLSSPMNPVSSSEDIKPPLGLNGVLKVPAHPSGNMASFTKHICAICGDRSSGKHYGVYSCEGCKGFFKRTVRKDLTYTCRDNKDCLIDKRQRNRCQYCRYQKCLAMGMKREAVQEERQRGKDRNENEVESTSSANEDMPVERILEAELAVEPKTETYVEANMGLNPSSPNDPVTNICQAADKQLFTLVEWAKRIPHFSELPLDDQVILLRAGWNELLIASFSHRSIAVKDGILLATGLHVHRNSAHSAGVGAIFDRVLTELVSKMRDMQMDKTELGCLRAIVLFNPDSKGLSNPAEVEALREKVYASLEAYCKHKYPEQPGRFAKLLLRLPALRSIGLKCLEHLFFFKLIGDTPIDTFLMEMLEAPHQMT
Chain of FXR:RXRa (Q96RI1 whole entry, chain 1 of 2): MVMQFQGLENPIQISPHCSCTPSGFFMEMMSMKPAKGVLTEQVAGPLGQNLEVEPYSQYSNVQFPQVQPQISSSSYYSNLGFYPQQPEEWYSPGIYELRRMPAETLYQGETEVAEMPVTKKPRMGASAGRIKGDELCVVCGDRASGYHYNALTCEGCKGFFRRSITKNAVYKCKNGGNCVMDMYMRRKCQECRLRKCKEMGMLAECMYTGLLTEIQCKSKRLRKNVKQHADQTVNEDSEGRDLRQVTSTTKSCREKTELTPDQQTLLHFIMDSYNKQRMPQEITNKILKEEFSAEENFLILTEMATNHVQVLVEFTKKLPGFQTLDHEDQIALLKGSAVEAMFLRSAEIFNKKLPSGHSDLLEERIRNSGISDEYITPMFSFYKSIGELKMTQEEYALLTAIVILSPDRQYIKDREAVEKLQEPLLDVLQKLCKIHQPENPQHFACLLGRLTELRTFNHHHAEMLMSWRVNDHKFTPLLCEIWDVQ
Chain of FXR:RXRa (P19793 whole entry, chain 2 of 2): as the sequence (P19793 whole entry, chain 2 of 2) above
Chain of RXRa (P19793 whole entry): as the sequence (P19793 whole entry, chain 2 of 2) above
Chain of LXRb:RXRa (P55055 whole entry, chain 1 of 2): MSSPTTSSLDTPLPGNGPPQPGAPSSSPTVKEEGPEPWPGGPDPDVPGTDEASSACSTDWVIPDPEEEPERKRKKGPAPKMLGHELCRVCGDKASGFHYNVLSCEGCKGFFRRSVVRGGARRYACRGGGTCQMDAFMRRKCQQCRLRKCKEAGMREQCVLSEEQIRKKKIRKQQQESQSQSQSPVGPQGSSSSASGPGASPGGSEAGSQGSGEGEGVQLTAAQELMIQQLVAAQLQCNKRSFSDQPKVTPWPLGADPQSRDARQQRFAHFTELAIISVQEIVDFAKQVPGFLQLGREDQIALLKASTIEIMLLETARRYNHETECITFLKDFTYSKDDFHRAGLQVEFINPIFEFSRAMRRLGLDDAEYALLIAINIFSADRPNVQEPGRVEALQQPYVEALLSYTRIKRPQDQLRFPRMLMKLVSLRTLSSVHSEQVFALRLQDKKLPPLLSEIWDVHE
Chain of LXRb:RXRa (P19793 whole entry, chain 2 of 2): as the sequence (P19793 whole entry, chain 2 of 2) above
Chain of RARg:RXRa (P13631 whole entry, chain 1 of 2): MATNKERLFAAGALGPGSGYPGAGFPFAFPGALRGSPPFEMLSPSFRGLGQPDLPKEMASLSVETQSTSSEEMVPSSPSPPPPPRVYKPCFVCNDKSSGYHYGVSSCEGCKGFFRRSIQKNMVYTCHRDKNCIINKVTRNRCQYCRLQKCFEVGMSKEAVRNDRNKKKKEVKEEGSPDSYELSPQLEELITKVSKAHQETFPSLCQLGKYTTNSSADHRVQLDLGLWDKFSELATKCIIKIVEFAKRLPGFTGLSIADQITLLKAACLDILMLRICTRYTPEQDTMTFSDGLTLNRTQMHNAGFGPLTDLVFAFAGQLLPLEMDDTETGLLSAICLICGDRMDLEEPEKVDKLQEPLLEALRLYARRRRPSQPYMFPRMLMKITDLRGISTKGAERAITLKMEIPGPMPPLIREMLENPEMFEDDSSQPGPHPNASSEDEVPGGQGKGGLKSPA
Chain of RARg:RXRa (P19793 whole entry, chain 2 of 2): as the sequence (P19793 whole entry, chain 2 of 2) above
Chain of PPARa:RXRa (Q07869 whole entry, chain 1 of 2): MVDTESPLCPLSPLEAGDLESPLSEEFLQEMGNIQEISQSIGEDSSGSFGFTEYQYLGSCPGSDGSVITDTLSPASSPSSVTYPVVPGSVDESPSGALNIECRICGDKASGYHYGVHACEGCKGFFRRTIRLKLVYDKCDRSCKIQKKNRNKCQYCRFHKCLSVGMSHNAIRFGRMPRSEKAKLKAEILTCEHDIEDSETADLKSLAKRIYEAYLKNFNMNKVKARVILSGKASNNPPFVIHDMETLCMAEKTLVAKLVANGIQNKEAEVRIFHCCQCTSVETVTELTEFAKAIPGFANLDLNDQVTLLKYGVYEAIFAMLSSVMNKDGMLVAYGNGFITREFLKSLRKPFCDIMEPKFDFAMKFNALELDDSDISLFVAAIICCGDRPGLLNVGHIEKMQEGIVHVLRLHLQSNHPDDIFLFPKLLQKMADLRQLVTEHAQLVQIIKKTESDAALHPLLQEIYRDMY
Chain of PPARa:RXRa (P19793 whole entry, chain 2 of 2): as the sequence (P19793 whole entry, chain 2 of 2) above
Chain of RARa:RXRa (P10276 whole entry, chain 1 of 2): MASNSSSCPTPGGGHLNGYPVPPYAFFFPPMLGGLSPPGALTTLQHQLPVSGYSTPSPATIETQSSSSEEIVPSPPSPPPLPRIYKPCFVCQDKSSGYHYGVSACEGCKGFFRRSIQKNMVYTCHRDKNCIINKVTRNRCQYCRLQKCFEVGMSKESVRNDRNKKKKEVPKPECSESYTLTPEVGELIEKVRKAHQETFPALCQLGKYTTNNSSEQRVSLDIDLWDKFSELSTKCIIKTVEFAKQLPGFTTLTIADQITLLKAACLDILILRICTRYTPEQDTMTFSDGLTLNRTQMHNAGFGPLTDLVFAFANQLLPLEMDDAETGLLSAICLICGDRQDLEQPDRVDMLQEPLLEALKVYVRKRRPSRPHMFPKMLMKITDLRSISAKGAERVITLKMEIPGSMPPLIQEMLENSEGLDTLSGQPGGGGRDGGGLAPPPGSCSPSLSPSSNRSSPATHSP
Chain of RARa:RXRa (P19793 whole entry, chain 2 of 2): as the sequence (P19793 whole entry, chain 2 of 2) above
Chain of RARb:RXRa (P10826 whole entry, chain 1 of 2): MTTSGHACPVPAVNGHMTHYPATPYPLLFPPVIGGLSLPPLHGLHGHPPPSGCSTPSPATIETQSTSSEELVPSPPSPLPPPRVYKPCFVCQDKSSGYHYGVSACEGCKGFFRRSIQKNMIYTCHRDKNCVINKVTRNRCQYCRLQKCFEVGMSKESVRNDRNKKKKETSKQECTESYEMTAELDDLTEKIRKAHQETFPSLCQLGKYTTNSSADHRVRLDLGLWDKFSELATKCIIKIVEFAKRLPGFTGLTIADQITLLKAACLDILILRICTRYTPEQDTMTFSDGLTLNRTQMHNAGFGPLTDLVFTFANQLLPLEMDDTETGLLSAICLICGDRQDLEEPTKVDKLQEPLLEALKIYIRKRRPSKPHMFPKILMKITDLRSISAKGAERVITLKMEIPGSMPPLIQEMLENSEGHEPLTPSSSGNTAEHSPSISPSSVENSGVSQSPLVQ
Chain of RARb:RXRa (P19793 whole entry, chain 2 of 2): as the sequence (P19793 whole entry, chain 2 of 2) above

Binder | binding signal (RXRa) | binding signal (RARa:RXRa) | further results
B1 | 8.11 PBM z-score against 500 random probes | 7.1 PBM z-score against 500 random probes | binding signal (PPARa:RXRa): 6.61 PBM z-score against 500 random probes; binding signal (FXR:RXRa): 7.75 PBM z-score against 500 random probes
B2 | 7.98 PBM z-score against 500 random probes | 7.38 PBM z-score against 500 random probes | binding signal (RARb:RXRa): 6.16 PBM z-score against 500 random probes; binding signal (RARg:RXRa): 8.13 PBM z-score against 500 random probes; binding signal (PPARa:RXRa): 6.49 PBM z-score against 500 random probes; binding signal (FXR:RXRa): 8.26 PBM z-score against 500 random probes
B3 | -0.29 PBM z-score against 500 random probes | -0.83 PBM z-score against 500 random probes | 
B4 | 0.35 PBM z-score against 500 random probes | 0.43 PBM z-score against 500 random probes | 
B5 |  | 3.83 PBM z-score against 500 random probes | binding signal (LXRb:RXRa): 3.24 PBM z-score against 500 random probes
B6 |  | 4.03 PBM z-score against 500 random probes | binding signal (LXRb:RXRa): 3.79 PBM z-score against 500 random probes
B7 | -0.65 PBM z-score against 500 random probes | -0.52 PBM z-score against 500 random probes | binding signal (RARg:RXRa): -0.13 PBM z-score against 500 random probes; binding signal (VDR:RXRa): -0.67 PBM z-score against 500 random probes; binding signal (FXR:RXRa): -1.02 PBM z-score against 500 random probes
B8 | -0.07 PBM z-score against 500 random probes | 0.34 PBM z-score against 500 random probes | binding signal (PPARa:RXRa): 0.16 PBM z-score against 500 random probes
B9 | -0.28 PBM z-score against 500 random probes | 0.08 PBM z-score against 500 random probes | 
B10 | 7.85 PBM z-score against 500 random probes | 7.04 PBM z-score against 500 random probes | 
B11 | 7.78 PBM z-score against 500 random probes | 7.56 PBM z-score against 500 random probes | 
B12 |  | -0.66 PBM z-score against 500 random probes | binding signal (LXRb:RXRa): -0.63 PBM z-score against 500 random probes
B13 |  | -0.05 PBM z-score against 500 random probes | binding signal (PPARa:RXRa): -0.08 PBM z-score against 500 random probes; binding signal (VDR:RXRa): -0.16 PBM z-score against 500 random probes
B14 | 8.27 PBM z-score against 500 random probes | 7.89 PBM z-score against 500 random probes | binding signal (FXR:RXRa): 7.78 PBM z-score against 500 random probes
B15 |  | 9.27 PBM z-score against 500 random probes | binding signal (RARb:RXRa): 6.38 PBM z-score against 500 random probes; binding signal (PPARa:RXRa): 7.54 PBM z-score against 500 random probes
B16 | 10.7 PBM z-score against 500 random probes | 9.26 PBM z-score against 500 random probes | 
B17 | 7.96 PBM z-score against 500 random probes | 7.7 PBM z-score against 500 random probes | binding signal (PPARa:RXRa): 6.73 PBM z-score against 500 random probes
B18 | -0.1 PBM z-score against 500 random probes | 0.49 PBM z-score against 500 random probes | binding signal (RARg:RXRa): -0.29 PBM z-score against 500 random probes
B19 | -0.13 PBM z-score against 500 random probes | -0.2 PBM z-score against 500 random probes | binding signal (FXR:RXRa): -0.49 PBM z-score against 500 random probes
B20 |  | -0.55 PBM z-score against 500 random probes | binding signal (VDR:RXRa): -0.33 PBM z-score against 500 random probes
B21 | 8.24 PBM z-score against 500 random probes | 7.46 PBM z-score against 500 random probes | 
